According to the supplement of paper PMC12764529:

Assay: folding stability dG unfold (combined trypsin and chymotrypsin); higher = more stable
Experimental: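 Folding stability of de novo designed mini-proteins (<80 aa, no Cys; designed by TrROS, TrMRF, ProteinMPNN and the joint model) was measured by cDNA display proteolysis with trypsin and chymotrypsin. Each protease was used at 11 concentrations in a threefold dilution series plus a no-protease condition. K50 was inferred by Bayesian fitting of sequencing counts, and dG unfold was derived against a sequence-predicted unfolded-state K50 (Tsuboyama et al. method). Sequences shown include variable-length N-terminal GS-type padding (SAGGSAGG...) inside a display construct carrying a PA tag. Rows were kept only if the AF2 dimer inter-PAE was >15, to exclude likely homo-oligomers.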

Sequence	folding stability dG unfold [kcal/mol]
SAGGSAGGSAGGSMVVPASEVEEYVERRKRETGDRFEVTPIPEEGVTPVRLEPADPALESAGGSAGGSAGGS [r4_419_JUSTAS]	< -1
SAGGSADMPMLPIEEIIDQLKEAKEANPNKKRTIEIPYPDGMPMQIEIDNDGKTKIEHPDGQWITISAGGSA [r15_73_TrROS]	< -1
SPKIKITEVEPNPGNMEKRTIELPNRPITLYWPPENGYYRVKIEDPDNNKERQIMVPPGQPPEEIAKDLLSA [r9_522_TrROS]	< -1
SAGGSAGGSAMEEYEIRVPDKPITIHRSPDGNYSLQYFDNKKTETIPADDLDDLPPGDLFRSAGGSAGGSAG [r3_256_TrROS]	< -1
SAGGSAGGSAGPKPVLLTIEVEAKPDEAEAVAKEIYEKEFPEAKDVTVETFPEKGTFRVTFGSAGGSAGGSA [r18_390_TrMRF]	< -1
SAGGSAGGSAAPKPVTVEKTIKVPGNDPEKVKKELEPKGWKVLGVDKNTVKAKITLPPGYKKSAGGSAGGSA [r18_168_JUSTAS]	< -1
SAGGSAPIKITIHWDPENGMYRIKGKTPDGPVEYPFPRDELRNMPIENFADELNYEIKDVEIEPYPSAGGSA [r15_801_TrROS]	< -1
SAGGSAYITIDDIKKLGPNMPIMVEPPKGRLMIFSPNQMVKITIDPDDDTIKVKEVFDSPEAMEKLSAGGSA [r15_6_TrROS]	< -1
SAGGSAGGSAPNQRREVPFYIYFPDDGKMFPFKQEKDPDPPKLKLKLPPEDFPPIEIMPGGSAGGSAGGSAG [r3_454_TrROS]	< -1
SAGGSAGGSAGGGLDDVPEEELRKILEEHGLPPEEVPPDTEVTLELPEGKPIKVRMTGRSAGGSAGGSAGGS [r10_623_JUSTAS]	< -1
SAGGSAMKYTLKDKDGKTITIEVEEHENPDGEPWYEVDIEHPNDGKEKKVYMPPNNPEEFAKKFLKSAGGSA [r15_92_TrROS]	< -1
SAGGSAGGSAGGSPPSLDYSVRTITTTVEETTFFPDNGTVRSRPVHVTTVVFEPLDSVESAGGSAGGSAGGS [r10_133_JUSTAS]	< -1
SAGGSAGGSAGPPERTLSAIIAPNGEILNPIPVPEGAKVTVEPIPETGYYVATVTVPADVSAGGSAGGSAGG [r11_32_TrMRF]	< -1
SAGGSAGGSEPVPLKVKARFGDPGEEFEADIDIPKEALEGEALTPEQIKEALEALFPDVEIEGSAGGSAGGS [r20_221_TrMRF]	< -1
SARLFTIRIQGPPEQLKDALQEEFDMEVNIEPEPNGSTTITFELPPNNYDRFEEALEQLPGFPIEIEPVSAG [r14_521_TrROS]	< -1
SAGSFEYEFENGSSNRVEVDPENKEVKVEYEPKEGKLIAALPEKGVVLVPIKDKKVEEAAKEVIEKLKKSAG [r5_447_TrMRF]	< -1
SAGGSAGGSANKDDKKKEQRKQRVESKLPIYDPGNGKPWDIEVTGPVDDPEDAVDWLLDWFSAGGSAGGSAG [r3_271_TrROS]	< -1
SAGGSPITPEIAQELAEEFPNWDIHVEPRKPGEEIRFPNGMRIFDDPNGYRVMVHNPNGKPRQLPVSAGGSA [r2_166_TrROS]	< -1
SAGKIRIVDSPDQLENAPPGDIVIHHRPSPETGRPRVRLAKYPDGKWEPLARMDSDGKIELPKELKEAISAG [r5_490_TrROS]	< -1

Sequence	folding stability dG unfold [kcal/mol]
SAGGMPVVTPTTSTEPLPGGRAATVTTYTPPDGLVRQEVTLPPERRLFRLIDPATGEVVEKEEAELESAGGS [r16_735_JUSTAS]	< -1
SAGGSAGGSAGPESRTITLEDPGSLEEAIERALATLPPDTTVTVTFGDEPVELNAATLRALSAGGSAGGSAG [r3_50_JUSTAS]	< -1
SAGPEPIKIKILKMQPNPNGTPMIRVKVVPPDGKPGEIPIPQEMLKEGNLDDMTIDDIAEEFPGLKPVSAGG [r19_74_TrROS]	< -1
SAGGSAGGSDINVRVIELPDEDGTPYLLLEADNPEGLSDEIAAAFPPDWDVRTDDDRVWVLRRSAGGSAGGS [r20_189_TrMRF]	< -1
SAGGSAGGSAGGSSAQIPFPDDGAWIMIDWDPEGRPKVKVHNPDNGEEIEFPPGAPIKISAGGSAGGSAGGS [r4_158_TrROS]	< -1
SAGGSAPPLTEVTLTEVSTDPETGTTTLTLEASGPVESVPLEFPDGRSVKAERLPDGTLVVTNPGASAGGSA [r15_736_JUSTAS]	< -1
SAGQIRIEIEPNPNGKPKIRITMHNPDGPPREREIPIDPGETVSDIADEFFENGMPIRPGSTIEDLIESAGG [r19_263_TrROS]	< -1
SAGGKIGQEVDPGEPITIPIVKRDGDNPKKEKINFRLPPGMRIRPKDDNIMIRFPGNGQEQTIPLKDLSAGG [r13_275_TrROS]	< -1
SAGGSAGGSMEITVTLPPDQTAEDAIAALPSEYKNVTVLETSTTFPPTTDETPTVTLTIKVTKSAGGSAGGS [r12_822_JUSTAS]	< -1
SAGGSAGGSAGGKRHRIDNIEPFNNDGEKLYRIRMPGGKEQRFPVGEEFTPNGAEIEPLPSAGGSAGGSAGG [r7_931_TrROS]	< -1
SAGGSKVPLDDFDKVTIGVDPKTGKTTASIYYPSDGSTVTFPGKEIPEVLASNPNIKTVETEPLPGSAGGSA [r2_159_JUSTAS]	< -1
SAGGSAGGSAVVTLPDGRLLITEKVEEEVVFPDRDRTSKRVTTKTTLIDPATGTVLPASLLSAGGSAGGSAG [r3_394_JUSTAS]	< -1
SAGGSASPDTRLVRIELKSNVPGTGIEVTETVPLVELEPDEPAEAVAEEVRAAHPVDEVTVTVDPASAGGSA [r15_540_JUSTAS]	< -1
SAGGSAGGSAGSTVKITVKGKTITVPKGAKVKLKNGKTFKAGESLESLSPEEIVKVEKVPSAGGSAGGSAGG [r17_511_TrROS_Hall]	< -1
SAGGMVVEEEPTKTVVEEVVPLPGGSPVRRITEEVLLPDGSVASRTTVFRPPGEREEETSLDPVPPEASAGG [r13_21_JUSTAS]	< -1
SAGGSAGGSAGGSENEPIPIQVKIWDPKDGEPVRTIPFNIWPGRSINELANKFPGVEIVSAGGSAGGSAGGS [r4_187_TrROS]	< -1
SAGGSAGGSAGGKLRIFYPNPWQARWRAKTIQNEMMDNGYKIPPNVEIEIHPMRPDPGDWSAGGSAGGSAGG [r7_965_TrROS]	< -1
SAGGPGYWRIKIYPKDTGKPHEFPIPLDQIRKVDPKNNKIEISFPNGPTIKIPDPEDIKAVQIEPWPSAGGS [r8_111_TrROS]	< -1
SAGGSAGGSAGGWYRIKWPNGHEYPVKVDEIDPDGNIKVEPPNDEEHKFPADGMKIEPLPSAGGSAGGSAGG [r7_823_TrROS]	< -1

Sequence	folding stability dG unfold [kcal/mol]
SAGGMDPAEAREIAKEIMKKFEENGRPYYAKITIRPDPKIQDIDIMPPGEPLEPRADPGQRTIMFRFPSAGG [r13_693_TrROS]	< -1
SAGGSAGGSAGGSAMVYRTEVLVESEELPPPGVGGRLRREGEKVIVRKAPPEALEELGRSAGGSAGGSAGGS [r4_274_JUSTAS]	< -1
SAGGSAGGVEVEADPEYEVEVFEDPETGAVVAIVKGPDEVERALRFIPETGEPVELPLEEFEPLSAGGSAGG [r6_304_TrMRF]	< -1
SSFKLYKRPDGSPYLTAPVPEKNLKSALDPSTGVPYIATTPGGELGALSLLADSLEELLKLPPLTFTKPGSA [r9_205_JUSTAS]	< -1
SAGGSAGGSAGGKKIKIVKVEPGKVKFSLGKKGKNIPGFEKEVKVEVYEIETDLEPLLNSAGGSAGGSAGGS [r10_654_TrMRF]	< -1
PDDPEEQREQMPPIPPEWAEELARKFAEKLGDEEVTEVEVDDITPNGYIEVEIENPDGGEVKIEIPMDDIMS [r1_435_TrROS]	< -1
SAGGSAGGSAGMKVREITGPPDDAKELLDENPDGITSIAIEPHPKNGQYRITFFDQGPPKSAGGSAGGSAGG [r17_79_TrROS]	< -1
SMYYVATVIRKKKDGGPYLGPEVRIVESPEEAEEIALEPAPERDYVVELKVEEVPLEELENPEKIKELLESA [r9_864_TrMRF]	< -1
SAGGSAGGSAGTTLLETEELPGPVRVTVERYKLPDGTLRVRTTEIDPSTGARHPREELVESAGGSAGGSAGG [r11_727_JUSTAS]	< -1
SAGGSAGGSMTPEKIKKIRKRMEERGYQIPSIETNPGNGMPFININPPDPEMREKDPELRELISAGGSAGGS [r12_482_TrROS]	< -1
SAGGSGGSTTPTFEEHVITGPLPVEIKVKKTTLNVTGSSAPSTTTTTTFYDPSGKKLSTKTTTTSSSAGGSA [r2_215_JUSTAS]	< -1
SAGGSAGGMELVTLPVVTTEEVPVPPVTKTLPNGTRETVPQPPVTVVRETVLLTTPEEAAALLRSAGGSAGG [r6_120_JUSTAS]	< -1
SAGGPPIMLRIKHPGPDQREKIKEIAQDYPIEPVNPTPGEHEFRFNGPEQVNRLQDIAEKNGWKIEISAGGS [r16_88_TrROS]	< -1
SAGGMLRTVKTEKYSDGTVVEPVADAAGNVTYTIVKKRKKVFDGDKVYYSEPVTIFKNGVKVEEKNISSAGG [r13_1007_JUSTAS]	< -1
SAGGPMWQVRLRDPDGKKRTINIQQTNGNMYVRIQDKDGEPVKEHPVDSAEEALDKLEDHGYKVEVYPSAGG [r13_315_TrROS]	< -1
SAGGSAGGSAGGSMLLTSQLLREFPNGEVRLETEVVELELPDEPLPLPKPKPRRDPEGRLVSAGGSAGGSAG [r3_252_JUSTAS]	< -1
SAGGSAGGSAGGPPPSLPYELDKKVIEKLVKYPEDKLKPVEIKEIETSLFNPLTGTWLDSAGGSAGGSAGGS [r10_248_JUSTAS]	< -1
SAGSATFTRATTPLPEVTLSWEELEELVKDPNIDSISVHSPTADRTLPAPEGKITGPLAPDQTVTLVGSAGG [r19_152_JUSTAS]	< -1
SAGGSAGGSAGKPYRIKIEFYPPGNGQPMEHTFPVKSPEEAVNNLEKSFPNYQIRVDVVESAGGSAGGSAGG [r17_428_TrROS]	< -1
